The record followed here is US20070184522A1, “Cell death modulation via antagonists of Fasl and Fas activation” (University of Pittsburgh of the Commonwealth System of …, priority 2004, published 2007).

For experiment [1], the target named is CFP-tagged and YFP-tagged Fas expressed in Hepa 1-6 cells. In words: cell-based or functional assay.
Experiment [2] deals with endogenous Fas of Jurkat cells (human) (UniProt P25445). In words: cell-based or functional assay.
For experiment [3], the target named is T1, Fas trimerization in Jurkat cells (Homo sapiens, UniProt P25445).
T1 construct: endogenous in cells; host or cells: Jurkat
T1 sequence (P25445 26-335): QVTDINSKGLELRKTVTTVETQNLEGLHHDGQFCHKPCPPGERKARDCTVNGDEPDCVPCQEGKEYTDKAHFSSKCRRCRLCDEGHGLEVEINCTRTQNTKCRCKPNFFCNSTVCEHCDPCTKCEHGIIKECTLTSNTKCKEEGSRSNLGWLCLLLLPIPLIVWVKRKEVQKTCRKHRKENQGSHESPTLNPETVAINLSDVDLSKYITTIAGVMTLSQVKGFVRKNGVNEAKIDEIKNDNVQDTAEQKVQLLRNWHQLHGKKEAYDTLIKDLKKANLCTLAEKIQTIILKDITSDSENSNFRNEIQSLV
In words: Chemical crosslinking (DTSSP) and Western blot of Fas trimerization in Jurkat cells. Format: cell-based. Conditions: Fas-Ligand and DTSSP. The protocol:
FIG. 3a presents data collected from Jurkat cells (1×10^6) treated with 2 μg/ml of Fas Ligand with or without AlphaMet for 30 minutes on ice. Cells were washed with PBS twice and then incubated with 2 mM of DTSSP in PBS for 30 minutes. The crosslinking process was stopped by 20 mM of Tris (pH 7.5) for another 30 minutes. Cells were spun down and washed with PBS twice and lyzed in RIPA buffer. Cell lysates were subjected to SDS-PAGE under non-reducing or reducing conditions (FIG. 3b) and Western blot analysis using the mouse monoclonal antibody against human Fas. FIG. 3c depicts the quantification of the data in FIG. 3a by densitometry. The data are the mean and SE from three different independent crosslinking and Western blot experiments. […] Frame A: Acceptor CFP-Fas image; Frame B: Acceptor pre-bleach CFP-Fas image; Frame C: Acceptor post-bleach image. Frame D: Donor YFP-Fas image; Frame E: Donor pre-bleach image; Frame F: […]. The CFP-Fas strength in the selected region obtained a gain of 19.3% efficiency in the presence of FasL for 15 minutes. No FRET was observed without FasL. […] FIG. 3e depicts the results of experiments in which CFP-tagged Fas or CFP control vector were transiently expressed in Hepa 1-6 Cells (3×10^5). […] Cells were fixed and analyzed by fluorescence microscopy. […]
For orientation: A western blot detects proteins with antibodies after separation by electrophoresis.

Experiment [4] has as its system Jurkat cells. In words: Fas-ligand induced apoptosis in Jurkat cells (Trypan Blue, flow cytometry). Format: cell-based, human. The protocol:
For FIG. 4a, Jurkat cells (1.5×10^5) were overnight treated in triplicate with 5 ng/ml of crosslinked human Fas ligand with or without 5 μg/ml of recombinant AlphaMet or 1 μg/ml of the indicated polypeptides. Percent apoptosis was determined by Trypan Blue staining using a hemocytometer. The data are representative and were repeated at least four times. […] The 17 kDa fragment of cleaved Caspase 3 is visualized by this antibody. The blot was reprobed for β-actin as a loading control. For FIG. 4c, serum deprived Hepa 1-6 cells (3×10^5) were overnight treated with 1 μg/ml of crosslinked mouse Fas ligand with or without AlphaMet or the indicated polypeptide. Media were collected and centrifuged to pellet the dead cells. […] The data in FIG. 4c represents three independent experiments.
Apoptosis assay. Pre-washed Jurkat cells in RPMI 1640 medium containing 1% FBS were inoculated in 96-wells at a density of 10^5 cells per well. Apoptosis was induced by cross-linked human Fas-ligand (R&D Systems) at a concentration of 0.5 ng/ml or Anti-Fas (human, activating) clone CH11 (Upstate biotechnology) at a concentration of 500 ng /ml. Hepa 1-6 cells were overnight starved before induction of apoptosis. The apoptosis in Hepa 1-6 was induced by anti-mouse Fas antibody Jo2 (200 ng/ml) or human recombinant Fas-ligand. The extent of cell viability and apoptosis was determined by several methods such as Trypan Blue stain, flow cytometry, LDH assay, and Hoechst staining.
In general terms: Flow cytometry measures light scatter and fluorescence of single cells or particles in a stream.

The subject of experiment [5] is Fas capping in Hepa 1-6 cells. Put plainly: Fas capping of fluorescent protein tagged Fas in Hepa 1-6 cells. Format: cell-based. Particulars: Hepa 1-6, 30 minutes treatment. The protocol: FIG. 3a presents data collected from Jurkat cells (1×10^6) treated with 2 μg/ml of Fas Ligand with or without AlphaMet for 30 minutes on ice. Cells were washed with PBS twice and then incubated with 2 mM of DTSSP in PBS for 30 minutes. The crosslinking process was stopped by 20 mM of Tris (pH 7.5) for another 30 minutes. Cells were spun down and washed with PBS twice and lyzed in RIPA buffer. Cell lysates were subjected to SDS-PAGE under non-reducing or reducing conditions (FIG. 3b) and Western blot analysis using the mouse monoclonal antibody against human Fas. FIG. 3c depicts the quantification of the data in FIG. 3a by densitometry. The data are the mean and SE from three different independent crosslinking and Western blot experiments. […] Frame A: Acceptor CFP-Fas image; Frame B: Acceptor pre-bleach CFP-Fas image; Frame C: Acceptor post-bleach image. Frame D: Donor YFP-Fas image; Frame E: Donor pre-bleach image; Frame F: […]. The CFP-Fas strength in the selected region obtained a gain of 19.3% efficiency in the presence of FasL for 15 minutes. No FRET was observed without FasL. […] FIG. 3e depicts the results of experiments in which CFP-tagged Fas or CFP control vector were transiently expressed in Hepa 1-6 Cells (3×10^5). Cells were treated with 1 μg/ml of Fas ligand or 100 ng/ml of Jo2 with or without 5 μg/ml of AlphaMet or 1 μg/ml of YLGA 12 mer for 30 minutes on ice. Cells were fixed and analyzed by fluorescence microscopy. Frame A: AlphaMet treatment only, no FasL; Frame B: Fas ligand treatment only; Frame C: Fas ligand and AlphaMet treatment; Frame D: Fas ligand and 12 mer YLGA; Frame E: Jo2 treatment only and Frame F: Jo2 and AlphaMet treatment.
Fluorescence protein tagged Fas molecules and Hepa 1-6 cells were used for these experiments. These cells were transiently co-transfected with CFP and YFP chimeric Fas expression vectors using the lipofectamine 2000 method (Invitrogen). After 24 hours of transfection, about 50% of the cells were fluorescing. The cells were treated by Fas-ligand in the presence or absence of AlphaMet for 30 minutes. Treated cells were then fixed with cold methanol and subjected to FRET analysis. Cells were considered positive if FRET efficiency was over 10%. FRET phenomenon was observed only in cells that were treated with Fas-ligand. […] In these experiments the percent of Fas capping was also determined.

Experiment [6] deals with Fas self-assembly in Hepa 1-6 cells. In words: FRET assay of CFP-Fas/YFP-Fas in transfected Hepa 1-6 cells. Type of experiment: cell-based. Conditions: Hepa 1-6, FasL for 15 minutes. The protocol:
FIG. 3a presents data collected from Jurkat cells (1×10^6) treated with 2 μg/ml of Fas Ligand with or without AlphaMet for 30 minutes on ice. Cells were washed with PBS twice and then incubated with 2 mM of DTSSP in PBS for 30 minutes. The crosslinking process was stopped by 20 mM of Tris (pH 7.5) for another 30 minutes. Cells were spun down and washed with PBS twice and lyzed in RIPA buffer. Cell lysates were subjected to SDS-PAGE under non-reducing or reducing conditions (FIG. 3b) and Western blot analysis using the mouse monoclonal antibody against human Fas. FIG. 3c depicts the quantification of the data in FIG. 3a by densitometry. The data are the mean and SE from three different independent crosslinking and Western blot experiments. […] Frame A: Acceptor CFP-Fas image; Frame B: Acceptor pre-bleach CFP-Fas image; Frame C: Acceptor post-bleach image. Frame D: Donor YFP-Fas image; Frame E: Donor pre-bleach image; Frame F: Donor pre-bleach image. […] Cells were fixed and analyzed by fluorescence microscopy. […]
FRET assay. […] Fret efficiency (E) was calculated as FRETeff=(Dpost−Dpre)/Dpost (Dpost and Dpre are the mean emission intensity […] YFP bleaching).
Fluorescence protein tagged Fas molecules and Hepa 1-6 cells were used for these experiments. […] In these experiments the percent of Fas capping was also determined.

Consider soluble Fas Ligand (recombinant FasL), for which, in experiment [1], the FRET efficiency between CFP-Fas and YFP-Fas is 19.3%; the percent of fluorescent cells showing Fas capping was found to be 20%. The molecule also gave a Fas trimerization (DTSSP crosslinking, Western blot, densitometry) in experiment [2] of 3 fold.

B1: FasL: recombinant soluble Fas Ligand, cognate ligand of Fas, used to induce apoptosis (protein)
chain: QLFHLQKELAELRESTSQMHTASSLEKQIGHPSPPPEKKELRKVAHLTGKSNSRSMPLEWEDTYGIVLLSGVKYKKGGLVINETGLYFVYSKVYFRGQSCNNLPLSHKVYMRNSKYPQDLVMMEGKMMSYCTTGQMWARSSYLGAVFNLTSADHLYVNVSELSLVNFEESQTFFGLYKL
Take B1: the “intensity of trimeric Fas complex versus ligand unstimulated crosslinked cells” value in experiment [3] is on record as “about 3 fold”. In addition, the death rate result in experiment [4] (Fas-ligand overnight, AlphaMet 5 μg/ml, Trypan Blue) is reported as “about 50%”. Also, the “sub-G1 (apoptotic) population” value in experiment [4] (Propidium Iodide flow cytometry, Fas-ligand) worked out at 48%. Besides, the “fluorescent cells showing Fas capping” value in experiment [5] is recorded as 20%. Moreover, the FRET efficiency gain in experiment [6] is 19.3%.
